According to US20220267464A1 (Hoffmann-La Roche, published 2022):
Numbering of substitutions follows the chain as printed. In names and notes the source's numbering stands.

B1: P1AE3122 (antibody, IgG1, V domains shown)
VH: QVQLVQSGAEVKKPGASVKVSCKASGFNIKDSYMHWVRQAPGQGLEWMGWIDPENGDTEYAPKFQGRVTMTTDTSISTAYMELSRLRSDDTAVYYCARGTPTGPYYFDYWGQGTLVTVSS
VL: DIQMTQSPSSLSASVGDRVTITCRASSSVSYMHWYQQKPGKAPKLLIYSTSNLASGVPSRFSGSGSGTDFTLTISSLQPEDFATYYCQQRSSYPLTFGGGTKLEIK
notes: huIgG1 P329G LALA; also called MFE-H27 / MFE-L24
B2: P1AE3124 (antibody, IgG1, V domains shown)
VH: B1 VH with F27Y, N28T, I29F, A97N, R98E
VL: B1 VL
notes: huIgG1 P329G LALA; also called MFE-H25 / MFE-L24
B3: P1AE3123 (antibody, IgG1, V domains shown)
VH: B1 VH with D57G, E59N, P62Q, A97N, R98E
VL: B1 VL
notes: huIgG1 P329G LALA; also called MFE-H26 / MFE-L24
B4: P1AE4138 (Fab, V domains shown)
VH: EVQLLESGGGLVQPGGSLRLSCAASGFTFTDYYMNWVRQAPGKGLEWLGFIGNKANGYTTEYSASVKGRFTISRDKSKNTLYLQMNSLRAEDTATYYCTRDRGLRFYFDYWGQGTTVTVSS
VL: EIVLTQSPATLSLSPGERATLSCRASSSVTYIHWYQQKPGQAPRSWIYATSNLASGIPARFSGSGSGTDFTLTISSLEPEDFAVYYCQHWSSKPPTFGQGTKLEIK
notes: Fab fragment; Ckappa light chain; also called Fab derived from P1AE2167
B5: P1AE4143 (Fab, V domains shown)
VH: B4 VH with L48V, T95V, T99A
VL: B4 VL
notes: Fab fragment; also called Fab derived from P1AE2182
B6: P1AE4141 (Fab, V domains shown)
VH: B4 VH with L48V, T95V, T99A
VL: B4 VL with E1Q, I2T, Q41S, A42S, R44K, F70Y
notes: Fab fragment; also called Fab derived from P1AE2179
B7: P1AE4137 (Fab, V domains shown)
VH: B4 VH
VL: B4 VL with Q41S, A42S, R44K
notes: Fab fragment; also called Fab derived from P1AE2166
B8: P1AE4139 (Fab, V domains shown)
VH: B4 VH with L48V, K76N, T95V
VL: B4 VL with Q41S, A42S, R44K
notes: Fab fragment; also called Fab derived from P1AE2176
B9: P1AE4136 (Fab, V domains shown)
VH: B4 VH
VL: B4 VL with E1Q, I2T, S45L, W46L
notes: Fab fragment; also called Fab derived from P1AE2165
B10: P1AE4135 (Fab, V domains shown)
VH: B4 VH
VL: B4 VL with E1Q, I2T, Q41S, A42S, R44K, F70Y
notes: Fab fragment; also called Fab derived from P1AE2164
B11: P1AE4140 (Fab, V domains shown)
VH: B4 VH with L48V, K76N, T95V
VL: B4 VL
notes: Fab fragment; also called Fab derived from P1AE2177
B12: P1AE4142 (Fab, V domains shown)
VH: B4 VH with L48V, T95V, T99A
VL: B4 VL with Q41S, A42S, R44K
notes: Fab fragment; also called Fab derived from P1AE2181
B13: P1AE0289 CEA (A5B7) Fab (parental murine antibody) (Fab, V domains shown)
VH: EVKLVESGGGLVQPGGSLRLSCATSGFTFTDYYMNWVRQPPGKALEWLGFIGNKANGYTTEYSASVKGRFTISRDKSQSILYLQMNTLRAEDSATYYCTRDRGLRFYFDYWGQGTTLTVSS
VL: QTVLSQSPAILSASPGEKVTMTCRASSSVTYIHWYQQKPGSSPKSWIYATSNLASGVPARFSGSGSGTSYSLTISRVEAEDAATYYCQHWSSKPPTFGGGTKLEIK
notes: Fab fragment
B14: P005.102 Fab (Fab, V domains shown)
VH: B4 VH with G57A, L104I, Y107Q
VL: B4 VL with P94S
notes: Fab from E. coli (supernatant or IMAC-purified); Flag tag; also called CEA (P005.102)
B15: P001.177 Fab (Fab, V domains shown)
VH: B4 VH with T28Y, G52S, G57A
VL: B4 VL
notes: Fab from E. coli (supernatant or IMAC-purified); Flag tag; also called CEA (P001.177)
B16: P005.097 Fab (Fab, V domains shown)
VH: B4 VH with G57A, Y107S
VL: B4 VL with K93Q
notes: Fab from E. coli (supernatant or IMAC-purified); Flag tag; also called CEA (P005.097)
B17: P002.139 Fab (Fab, V domains shown)
VH: B4 VH with T28Y, Y33A, F50V, G52S, G57A
VL: B4 VL with R24H
notes: Fab from E. coli (supernatant or IMAC-purified); Flag tag; also called CEA (P002.139)
B18: P005.103 Fab (Fab, V domains shown)
VH: B4 VH with G57A, L104I
VL: B4 VL with K93I, P94S
notes: Fab from E. coli (supernatant or IMAC-purified); Flag tag; also called CEA (P005.103)
B19: A5H1EL1D Fab (phagemid-derived) (Fab, V domains shown)
VH: B4 VH with G57A
VL: B4 VL
notes: Flag tag; also called parental humanized clone A5H1EL1D

The binders below were run against T1, human CEACAM5 (carcinoembryonic antigen, CEA) on cells (human, UniProt P06731 35-685) (assay: flow cytometry, MKN45 cells).
T1 construct: endogenous on MKN45 gastric adenocarcinoma cells; full-length cDNA stably transfected in the CHO-K1 clones; also called huCEACAM5; MKN45 cells
T1 sequence: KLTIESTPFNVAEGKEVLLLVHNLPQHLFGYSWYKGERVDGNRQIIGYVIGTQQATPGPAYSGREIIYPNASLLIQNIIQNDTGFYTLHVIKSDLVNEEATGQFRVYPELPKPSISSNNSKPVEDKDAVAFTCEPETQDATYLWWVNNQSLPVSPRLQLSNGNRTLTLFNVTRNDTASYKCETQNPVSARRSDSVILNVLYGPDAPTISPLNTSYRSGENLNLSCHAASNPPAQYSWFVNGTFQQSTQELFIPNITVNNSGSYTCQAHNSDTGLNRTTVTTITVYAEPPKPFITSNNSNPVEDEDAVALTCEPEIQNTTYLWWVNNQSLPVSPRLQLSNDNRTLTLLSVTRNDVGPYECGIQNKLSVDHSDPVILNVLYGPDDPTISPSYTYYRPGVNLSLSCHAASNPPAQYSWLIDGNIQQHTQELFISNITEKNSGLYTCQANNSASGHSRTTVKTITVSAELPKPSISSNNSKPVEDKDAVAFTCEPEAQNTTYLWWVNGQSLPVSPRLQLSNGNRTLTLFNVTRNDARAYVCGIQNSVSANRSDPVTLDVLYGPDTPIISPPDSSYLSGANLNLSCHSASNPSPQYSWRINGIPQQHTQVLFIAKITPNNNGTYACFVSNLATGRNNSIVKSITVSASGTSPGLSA
Design: AUC: unit not given beside the values

Binder	AUC
B1	422
B2	847
B3	1090

Biological target: T2, hu N(A2-B2)A-avi-His (human, biotin on the avi tag where used biotinylated)
T2 construct: chimeric soluble antigen; also called hu N(A2-B2)A-avi-His B; human CEA (A2 domain)
T2 chain: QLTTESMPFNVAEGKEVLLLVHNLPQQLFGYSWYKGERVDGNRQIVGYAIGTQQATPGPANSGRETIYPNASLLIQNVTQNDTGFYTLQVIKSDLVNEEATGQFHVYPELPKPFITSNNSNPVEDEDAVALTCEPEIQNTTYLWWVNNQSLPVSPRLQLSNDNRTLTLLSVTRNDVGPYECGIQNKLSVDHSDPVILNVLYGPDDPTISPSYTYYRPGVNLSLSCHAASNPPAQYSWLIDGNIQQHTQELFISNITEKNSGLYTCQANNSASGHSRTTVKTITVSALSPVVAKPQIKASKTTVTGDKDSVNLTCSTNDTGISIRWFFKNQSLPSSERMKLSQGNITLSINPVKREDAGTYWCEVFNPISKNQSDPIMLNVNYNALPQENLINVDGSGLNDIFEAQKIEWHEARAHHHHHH
Test: SPR (Biacore T200), antigen on CM5 chip, Fab as analyte
Source text: Data were double-referenced against the unimmobilized flow cell 1 and a zero concentration of the analyte. The sensorgrams of the analytes were fitted to a simple 1:1 Langmuir interaction model.

Binder	Kd [nM]
B4	1.47
B5	2.92
B6	1.83
B7	11.3
B8	7.58
B9	1.25
B10	1.7
B11	7.62
B12	2.64
B13	0.559

Biological target: T3, NA(B2)A-avi-His (human, biotin on the avi tag)
T3 construct: chimeric soluble control antigen without the CEACAM5 A2 domain
T3 chain: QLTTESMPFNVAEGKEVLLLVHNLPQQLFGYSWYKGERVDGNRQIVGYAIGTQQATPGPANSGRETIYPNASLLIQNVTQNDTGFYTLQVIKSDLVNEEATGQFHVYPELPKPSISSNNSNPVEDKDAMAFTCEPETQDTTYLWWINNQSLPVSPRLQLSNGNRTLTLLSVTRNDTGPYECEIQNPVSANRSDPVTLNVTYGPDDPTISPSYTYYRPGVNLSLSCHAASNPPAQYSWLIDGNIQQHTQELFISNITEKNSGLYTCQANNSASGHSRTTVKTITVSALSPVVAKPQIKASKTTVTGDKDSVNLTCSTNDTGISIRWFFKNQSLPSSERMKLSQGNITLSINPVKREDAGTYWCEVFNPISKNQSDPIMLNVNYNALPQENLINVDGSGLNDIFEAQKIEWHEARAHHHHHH
Test: SPR (ProteOn), Fab in bacterial supernatant, 2000 RU antigen
Source text: (§1) For this experiment, about 2000, 1000, and 500 RU of biotinylated N(A2B2)A-avi-His were immobilized on 3 channels using a Streptavidin-coated NLC chip in vertical orientation. As a control for non-specific binding, 2000 RU of biotinylated NA(B2)A-avi-His protein was immobilized on channel 4. For the off-rate analysis of the identified ELISA-positive clones, injection direction was changed to horizontal orientation. Before injection, each Fab-containing bacterial supernatant was filtered and 3-fold diluted with PBS. The association time was 100 s at 100 μl/minute and dissociation times were either 600 or 1200 s. Bacterial supernatant without Fab fragment was used for referencing. Regeneration was performed with 10 mM glycine pH 1.5 for 35 s at 50 μl/min (vertical orientation).
(§2) Dissociation rate constants (koff) were calculated using a simple one-to-one Langmuir binding model in ProteOn Manager v3.1 software by simultaneously fitting the sensorgrams. […] Shortlisted clones were re-evaluated in an additional SPR experiments under the same conditions. […] Bacterial supernatant without Fab fragment was used for referencing.

Binder	binding result
B14	no binding
B15	no binding
B16	no binding
B17	no binding
B18	no binding

Biological target: T2, hu N(A2-B2)A-avi-His
Test: SPR (ProteOn XPR36), purified Fab, biotinylated antigen on NLC chip
Protocol: Affinity (KD) of purified Fab fragments was measured by surface plasmon resonance using a Proteon XPR36 machine using the same setup as described before.
About 2000, 1000, 500, and 250 RU of biotinylated N(A2B2)A-avi-His were immobilized on 4 channels of a Streptavidin-coated NLC chip in vertical orientation. As a control for non-specific binding, 2000 RU of biotinylated NA(B2)A-avi-His protein was immobilized on channel 5. For the determination of the affinity (KD) of the purified clones, injection direction was changed to horizontal orientation. Two-fold dilution series of purified Fab fragments (varying concentration ranges between 100 and 3 nM) were injected simultaneously at 100 μl/min along separate channels 1-5, with association times of 100 s, and dissociation times of 1200 s. Buffer (PBST) was injected along the sixth channel to provide an “in-line” blank for referencing. Regeneration was performed with 10 mM glycine pH 1.5 for 35 s at 50 μl/min (vertical orientation).
Association rate constants (kon) and dissociation rate constants (koff) were calculated using a simple one-to-one Langmuir binding model in ProteOn Manager v3.1 software by simultaneously fitting the association and dissociation sensorgrams. The equilibrium dissociation constant (KD) was calculated as the ratio koff/kon.

Binder	Kd [nM]	koff [s⁻¹]	kon [M⁻¹ s⁻¹]
B14	0.29	3.92e-05	134000
B15	0.29	7.85e-05	267000
B16	0.91	8.54e-05	94000
B19	2.3	0.000248	108000
B17	0.63	6.53e-05	105000
B18	0.5	4.99e-05	100000

What follows are binders tested against T1, human CEACAM5 (carcinoembryonic …) (assay: flow cytometry, MKN-45 cells, goat F(ab')2 anti-human Fcγ-PE, gMFI).

Binder	binding result
B1	no binding (tested: about 300 nM)
B2	no binding (tested: about 300 nM)
B3	no binding (tested: about 300 nM)

Biological target: T2, hu N(A2-B2)A-avi-His
Test: SPR (ProteOn XPR36), Fab in bacterial supernatant, biotinylated antigen on NLC chip
Source text: as §1, §2

Binder	koff [s⁻¹]
B14	4.24e-05
B15	9.81e-05
B16	8.87e-05
B19	0.00031
B17	6.47e-05
B18	5.37e-05
